Laboratory results from patent publication US20240059799A1 (Pfizer, published 2024).
Numbering of substitutions follows the chain as printed. Read-outs that look alike come from different tables or passages of the source.

How the values were obtained:
recombinant human TL1A [1] = target: T1, recombinant human TL1A (human, UniProt O95150 71-251); assay: cell-based or functional assay
T1 chain: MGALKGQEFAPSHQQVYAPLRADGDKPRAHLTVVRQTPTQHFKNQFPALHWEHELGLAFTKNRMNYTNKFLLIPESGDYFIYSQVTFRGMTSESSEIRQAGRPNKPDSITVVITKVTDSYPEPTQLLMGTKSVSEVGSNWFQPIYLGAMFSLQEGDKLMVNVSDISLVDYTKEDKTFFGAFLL

[2] = target: T2, full-length human TL1A on CHO-K1 cells (human, UniProt O95150 1-251); assay: flow cytometry on CHO-K1 cells stably expressing full-length human TL1A, PE anti-human IgG, median fluorescent intensity
T2 construct: whole, on cells; also called cells over-expressing human TL1A
T2 sequence (looked up): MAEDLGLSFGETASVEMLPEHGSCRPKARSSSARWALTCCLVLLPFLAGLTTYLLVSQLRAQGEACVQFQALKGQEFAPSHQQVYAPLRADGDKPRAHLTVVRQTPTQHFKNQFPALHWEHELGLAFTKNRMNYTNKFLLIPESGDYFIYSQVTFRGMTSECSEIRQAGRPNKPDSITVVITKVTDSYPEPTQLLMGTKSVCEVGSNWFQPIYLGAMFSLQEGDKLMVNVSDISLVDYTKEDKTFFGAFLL
In short: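 CHO-K1 cells expressing human TL1A were incubated on ice 30-60 minutes with bivalent antibody variants at 1 μg/mL or 20 μg/mL. Binding was detected with PE-anti-human IgG (1:500, 15 minutes on ice) and read by flow cytometry as median fluorescence intensity.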

recombinant human TL1A [3] = target: T1, recombinant human TL1A; assay: competition ELISA on plate-coated recombinant human TL1A, competitor biotinylated TL1A-0260 (bio-TL1A-0260), streptavidin-HRP, OD450
Protocol: (§1) For this competition ELISA assay procedure, 96-well high binding plates (Corning, product number 3590) were coated with 1 μg/mL recombinant TL1A in 100 μL/well in Phospate Buffered Saline (PBS) overnight at 4° C. Plates were then blocked in PBS+0.02% casein solution and washed with PBS+0.05% Tween-20 following standard ELISA protocol. […] Plates were washed with PBS+0.05% Tween-20 following standard ELISA protocol, and Streptavidin-HRP (Southern Biotech, product number 7100-05) diluted to 1:10,000 in assay buffer was added to plates and incubated for 25-30 minutes at room temperature. Next, the plates were washed with PBS+0.05% Tween-20 following standard ELISA protocol, and then TMB substrate (BioFX Laboratories Catalog number TMBW-0100-01) was added to plates. Reactions were stopped after approximately 5 minutes by adding 0.18 M ortho-phosphoric acid to each well and absorbance was read at 450 nm.

recombinant human TL1A [4] = target: T1, recombinant human TL1A; assay: as above
Protocol: as §1

recombinant human TL1A [5] = target: T1, recombinant human TL1A; assay: as above
Protocol: as §1

recombinant human TL1A [6] = target: T1, recombinant human TL1A; assay: as above
Protocol: as §1

recombinant human TL1A [7] = target: T1, recombinant human TL1A; assay: competition ELISA, coated TL1A, competitor bio-TL1A-0002
human IL-23 = target: T3, human IL-23 (human, UniProt P29460 23-328; Q9NPF7 20-189); assay: SPR, 37 C; antibody captured by anti-human Fc, human IL-23 injected
T3 construct: also called recombinant human IL-23 (p40/p19)
T3 sequence 1: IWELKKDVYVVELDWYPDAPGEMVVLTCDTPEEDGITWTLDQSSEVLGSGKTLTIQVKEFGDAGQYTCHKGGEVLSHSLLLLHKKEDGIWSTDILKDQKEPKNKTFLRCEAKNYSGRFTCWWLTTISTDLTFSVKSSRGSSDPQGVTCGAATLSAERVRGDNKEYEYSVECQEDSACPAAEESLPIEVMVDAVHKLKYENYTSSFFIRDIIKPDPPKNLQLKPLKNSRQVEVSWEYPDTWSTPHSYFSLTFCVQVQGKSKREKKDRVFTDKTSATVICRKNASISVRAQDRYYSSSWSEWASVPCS
T3 sequence 2: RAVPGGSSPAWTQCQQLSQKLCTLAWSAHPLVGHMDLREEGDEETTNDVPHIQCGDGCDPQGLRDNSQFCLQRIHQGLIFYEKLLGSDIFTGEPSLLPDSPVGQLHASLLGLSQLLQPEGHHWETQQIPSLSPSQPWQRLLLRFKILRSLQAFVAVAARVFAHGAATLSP
Protocol: (§2) SPR was utilized to determine if the affinity constants of each arm of the bispecific variants binding human IL-23, containing the p40 subunit, and human TL1A were the same for each bispecific approach. For the analysis of the p40 binding arm, kinetic assays were conducted at 37° C. using a collection rate of 10 Hz on a Biacore™ 8 K+ instrument (GE Healthcare). An anti-human IgG antibody (anti-human Fc, GE Healthcare, 22-0648-88) was amine coupled to all four flow cells of a carboxymethylated dextran coated sensor chip (GE Healthcare,) using the manufacturer's recommended protocol. […] For the analysis of the TL1A binding arm, kinetic assays were conducted at 37° C. using a collection rate of 10 Hz on a Biacore™ T200 instrument (GE Healthcare).
(§3) As described above in EXAMPLE 12, SPR was utilized to determine if the affinity constants of each arm of the bispecific variants binding human IL-23, containing the p40 subunit, and human TL1A were the same for each bispecific variant.

recombinant human TL1A [8] = target: T4, recombinant human TL1A (human, UniProt O95150 71-251); assay: SPR, 37 C; biotinylated human TL1A captured on Biotin CAPture chip, antibody injected
T4 construct: TL1A is described as a homotrimer; Biotinylated for SPR capture; also called TNFSF15
T4 chain: T1 chain
Protocol: as §2, §3

recombinant human TL1A [9] = target: T4, recombinant human TL1A; assay: cell-based or functional assay

B1: TL1A-0260 (antibody, human IgG1, kappa, V domains shown)
VH: QVQLVQSGAEVKKPGASVKVSCKASGYDYTYYGISWVRQAPGQGLEWMGWISTYNTGTHYAPSLQGRVTMTTDTSTSTAYMELRSLRSDDTAVYYCARESYYGSGAFRGGMDVWGQGTTVTVSS
VL: DIQMTQSPSSLSASVGDRVTITCRASQSVSSYLAWYQQKPGKAPKLLIYDASNRATGVPSRFSGSGSGTDFTLTISSLQPEDFATYYCQQRSNWPWTFGQGTKVEIKR
notes: human IgG1 effector-function-minimized/kappa; also called bio-TL1A-0260 (biotinylated reporter)
Recombinant human TL1A [1]
  TF-1 NF-κB reporter cell bioassay IC50: 29.2 nM
  TF-1 NF-κB reporter cell bioassay, Bioactivity relative to TL1A-0002: 0.8 fold
  Whole blood IFNγ assay IC50: 0.755 nM
  Whole blood IFNγ assay, Bioactivity relative to TL1A-0002: 0.9 fold
[2]
  binding result: binds
Recombinant human TL1A [3]
  IC50 (read off the curve): ~4 nM
Recombinant human TL1A [4]
  IC50 (read off the curve): ~4 nM
Recombinant human TL1A [5]
  IC50 (read off the curve): ~7 nM
Recombinant human TL1A [6]
  IC50 (read off the curve): ~4 nM
Recombinant human TL1A [7]
  Bioactivity relative to TL1A-0002: 1.3 fold
  IC50: 6.8 nM

B2: [xTL1A]-0341 (antibody, human IgG1, kappa, V domains shown)
VH: QVQLVQSGAEVKKPGASVKVSCKASGYTFTSYGISWVRQAPGQGLEWMGWISAYNGNTNYAQKLQGRVTMTTDTSTSTAYMELRSLRSDDTAVYYCARESSYGSEAFRAGMDVWGQGTTVTVSS
VL: B1 VL
notes: bivalent disabled antibody, IgG1 effector-function-minimized/kappa
[2]
  binding result: no binding (tested: 20 ug/mL)
Recombinant human TL1A [5]
  binding result: no binding (tested: 300 nM)

B3: p40TL1A-0041 KiH mFd bispecific antibody (bispecific antibody)
heavy: QVQLVQSGAEVKKPGASVKVSCKASGYDYTYYGISWVRQAPGQGLEWMGWISTYNTGTHYAPSLQGRVTMTTDTSTSTAYMELRSLRSDDTAVYYCARESYYGSGAFRGGMDVWGQGTTVTVSSASTKGPSVFPLAPSSKSTSGGTAALGCLVKDYFPEPVTVSWNSGALTSGVHTFPAVLQSSGLYSLSSVVTVPSSSLGTQTYICNVNHKPSNTKVDKKVEPKSCDKTHTCPPCPAPEAAGAPSVFLFPPKPKDTLMISRTPEVTCVVVDVSHEDPEVKFNWYVDGVEVHNAKTKPREEQYNSTYRVVSVLTVLHQDWLNGKEYKCKVSNKALPAPIEKTISKAKGQPREPQVCTLPPSREEMTKNQVSLWCLVKGFYPSDIAVEWESNGQPENNYKTTPPVLDSDGSFFLYSKLTVDKSRWQQGNVFSCSVLHEALHSHYTQKSLSLSPGK
light: not shown
LC-Fc: not shown
mFd: EVQLVQSGAEVKKPGESLKISCKGSGYSFTTYWLGWVRQMPGKGLDWIGIMSPVDSDIRYSPSFQGQVTMSVDKSITTAYLQWNSLKASDTAMYYCARRRPGQGYFDFWGQGTLVTVSSASTKGPSVFPLAPSSKSTSGGTAALGCLVKDYFPEPVTVSWNSGALTSGVHTFPAVLQSSGLYSLSSVVTVPSSSLGTQTYICNVNHKPSNTKVDKKVEPKSC
notes: KiH mFd format with the anti-p40 arm as modified Fd
Human IL-23
  Kd: 0.213 nM
  koff: 0.000485 s⁻¹
  kon: 2.29e+06 M⁻¹ s⁻¹
Recombinant human TL1A [8]
  Kd: 0.577 nM
  koff: 7.56e-05 s⁻¹
  kon: 131000 M⁻¹ s⁻¹
Recombinant human TL1A [9]
  NF-κB assay IC50 (TF-1 reporter cells, 384-well): 0.32 nM

B4: p40TL1A-0042 KiH mFd bispecific antibody (bispecific antibody)
heavy: B3 heavy with C356Y, S361C, W373S, L375A, Y414V
light: not shown
LC-Fc: not shown
mFd: B3 mFd
notes: as for B3
Human IL-23
  Kd: 0.207 nM
  koff: 0.000488 s⁻¹
  kon: 2.35e+06 M⁻¹ s⁻¹
Recombinant human TL1A [8]
  Kd: 0.419 nM
  koff: 7.42e-05 s⁻¹
  kon: 177000 M⁻¹ s⁻¹
Recombinant human TL1A [9]
  NF-κB assay IC50 (TF-1 reporter cells, 384-well): 0.32 nM
